Legend:
Hfqwt (Escherichia coli) = Hfqwt (Escherichia coli) (UniProt P0A6X3); assay: EMSA
Hfq65 (Escherichia coli) = Hfq65 (Escherichia coli) (UniProt P0A6X3); assay: EMSA
Hfq65 (Escherichia coli), sequence (P0A6X3 1-65): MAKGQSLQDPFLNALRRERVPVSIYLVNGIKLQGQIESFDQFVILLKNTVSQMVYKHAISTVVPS

Hfqwt (Escherichia coli), sequence (P0A6X3 whole entry): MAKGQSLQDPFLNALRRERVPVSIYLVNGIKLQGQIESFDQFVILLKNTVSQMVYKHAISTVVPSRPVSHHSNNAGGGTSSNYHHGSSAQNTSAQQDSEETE

Substance: RyhB
- Kd (Hfqwt (Escherichia coli)): 16 nM
- Kd (Hfq65 (Escherichia coli)): 35 nM

— publication PMC2248732
